Laboratory results as given in US20160122429A1.

How the values were obtained:
Test in all cases: cell-based or functional assay
[1] = molecular target: human non-cleavable membrane bound TNFα on CHO cells (human) (UniProt P01375)
[2] = molecular target: human TNFα (soluble) (human) (UniProt P01375)
human IL-23 (human) = human IL-23 (human) (UniProt Q9NPF7)
Chain of human IL-23 (human) (Q9NPF7 20-189, chain 1 of 2): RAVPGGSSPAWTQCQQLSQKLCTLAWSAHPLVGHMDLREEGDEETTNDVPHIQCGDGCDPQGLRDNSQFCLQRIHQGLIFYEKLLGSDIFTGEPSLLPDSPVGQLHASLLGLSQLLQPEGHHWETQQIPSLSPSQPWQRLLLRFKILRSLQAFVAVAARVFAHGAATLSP
Chain of human IL-23 (human) (P29460 23-328, chain 2 of 2, further chain): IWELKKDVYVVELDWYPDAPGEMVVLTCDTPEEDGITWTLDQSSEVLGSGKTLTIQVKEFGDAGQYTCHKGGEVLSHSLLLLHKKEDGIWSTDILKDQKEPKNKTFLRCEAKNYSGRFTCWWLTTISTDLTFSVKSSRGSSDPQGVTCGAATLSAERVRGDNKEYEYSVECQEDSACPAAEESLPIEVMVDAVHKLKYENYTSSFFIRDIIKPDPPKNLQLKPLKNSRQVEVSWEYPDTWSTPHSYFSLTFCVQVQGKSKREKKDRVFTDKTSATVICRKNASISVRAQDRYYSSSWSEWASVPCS

Chain of human TNFα (soluble) (human) (P01375 77-233 limits assumed): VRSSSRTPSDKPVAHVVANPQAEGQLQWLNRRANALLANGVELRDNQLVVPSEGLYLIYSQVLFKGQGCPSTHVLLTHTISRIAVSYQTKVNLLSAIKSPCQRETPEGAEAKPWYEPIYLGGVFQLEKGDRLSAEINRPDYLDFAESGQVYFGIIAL
Chain of human non-cleavable membrane bound TNFα on CHO cells (human) (P01375 whole entry): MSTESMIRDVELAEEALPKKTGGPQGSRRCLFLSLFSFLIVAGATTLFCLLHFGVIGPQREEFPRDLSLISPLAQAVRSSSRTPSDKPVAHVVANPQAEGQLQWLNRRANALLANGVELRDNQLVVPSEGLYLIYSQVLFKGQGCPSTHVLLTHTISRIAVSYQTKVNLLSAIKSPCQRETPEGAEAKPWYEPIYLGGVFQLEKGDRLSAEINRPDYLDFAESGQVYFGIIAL

Substance | inhibition of killing of L929 cells by human non-cleavable membrane bound TNFα CHO cells (IC50, MTT assay) [1] [pM] | CXCL1 Level (pg/mL) in plasma of mice challenged with human TNFα [2] [pg/mL] | mIL22 Level (pg/mL) in plasma of mice challenged with human IL-23 (human IL-23 (human)) [pg/mL]
Adalimumab with IgG1 isotype (parental TNFα antibody) | 581 | 633 | –
human IgG1 isotype control antibody | – | 2420 | 132
